The values that follow come from patent US7838249 (BOARD OF REGENTS OF THE UNIVERSITY OF OKLAHOMA, dated 2010).

The target in assay [1] is TrkA (high-affinity NGF receptor), expressed in PC12 cells from pBI/TrkA. Briefly: cell-based or functional assay.
A further assay addresses T1, GST-Rabex-5(135-399) (Bos taurus, UniProt O18973 135-399).
T1 construct: Immobilized on glutathione Sepharose-4B; also called the GEF domain itself
Briefly: GST pull-down, SDS-PAGE, Coomassie staining. The protocol:
The final concentration of each protein was <2 μM for detection of specific binding. The resins were subsequently washed three times with phosphate-buffered saline (PBS) and resuspended in 20 μl of SDS sample buffer. The samples were subjected to 20% SDS-PAGE analysis, and the proteins were visualized by Coomassie brilliant blue staining.
The bound proteins were analyzed by SDS-PAGE and visualized by Coomassie blue staining. […] Molecular mass standards (in kilodaltons) are indicated on the left of the panel.

T1 sequence (O18973 other isoform, or with tags, fused parts or gaps limits assumed): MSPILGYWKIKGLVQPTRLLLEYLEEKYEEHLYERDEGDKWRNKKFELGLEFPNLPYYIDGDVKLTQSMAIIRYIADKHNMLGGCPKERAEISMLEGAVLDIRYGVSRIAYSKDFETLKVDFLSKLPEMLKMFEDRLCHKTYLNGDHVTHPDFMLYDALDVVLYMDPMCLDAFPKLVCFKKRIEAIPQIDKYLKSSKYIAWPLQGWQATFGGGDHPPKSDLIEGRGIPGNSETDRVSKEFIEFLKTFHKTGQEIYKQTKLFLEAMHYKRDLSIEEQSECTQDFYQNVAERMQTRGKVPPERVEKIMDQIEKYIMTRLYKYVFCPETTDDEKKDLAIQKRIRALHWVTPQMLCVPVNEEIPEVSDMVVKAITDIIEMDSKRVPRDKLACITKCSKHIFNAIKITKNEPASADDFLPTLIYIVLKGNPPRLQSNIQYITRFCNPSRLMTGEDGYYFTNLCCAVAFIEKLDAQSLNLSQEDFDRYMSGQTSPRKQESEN
Chain of TrkA (high-affinity NGF receptor), expressed in PC12 cells from pBI/TrkA (P35739 33-799): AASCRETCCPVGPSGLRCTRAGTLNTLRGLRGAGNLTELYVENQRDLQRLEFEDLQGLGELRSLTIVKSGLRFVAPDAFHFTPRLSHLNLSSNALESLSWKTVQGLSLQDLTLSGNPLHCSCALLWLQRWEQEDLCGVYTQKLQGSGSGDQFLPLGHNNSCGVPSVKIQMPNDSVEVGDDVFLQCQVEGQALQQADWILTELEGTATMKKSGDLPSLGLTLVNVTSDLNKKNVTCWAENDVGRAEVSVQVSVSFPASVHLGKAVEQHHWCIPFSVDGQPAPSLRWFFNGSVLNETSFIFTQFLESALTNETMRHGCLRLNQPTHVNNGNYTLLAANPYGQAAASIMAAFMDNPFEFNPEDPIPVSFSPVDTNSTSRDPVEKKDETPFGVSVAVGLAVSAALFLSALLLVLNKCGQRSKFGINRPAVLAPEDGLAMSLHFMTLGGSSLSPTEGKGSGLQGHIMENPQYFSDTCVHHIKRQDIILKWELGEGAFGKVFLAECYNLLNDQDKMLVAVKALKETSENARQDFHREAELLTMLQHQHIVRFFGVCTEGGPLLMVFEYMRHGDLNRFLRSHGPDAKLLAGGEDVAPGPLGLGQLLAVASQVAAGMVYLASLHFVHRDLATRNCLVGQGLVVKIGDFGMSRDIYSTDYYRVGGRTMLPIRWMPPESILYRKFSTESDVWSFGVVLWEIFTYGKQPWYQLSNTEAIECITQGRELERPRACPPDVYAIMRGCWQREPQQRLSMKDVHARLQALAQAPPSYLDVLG

With “Myc-tagged RabGAP5-C (residues 441-749) (from UniProt F1LQU9 454-763)”, in assay [1], the NGF-mediated neurite outgrowth (percentage of differentiated PC12 cells) was 20%.

B1: 6-His-Rabaptin-5(551-862) (other)
chain: HHHHHHAETRDQVKKLQLMLRQANDQLEKTMKDKQELEDFIKQSSEDSSHQISALVLRAQASEILLEELQQGLSQAKRDVQEQMAVLMQSREQVSEELVRLQKDNDSLQGKHSLHVSLQQAEDFILPDTTEALRELVLKYREDIINVRTAADHVEEKLKAEILFLKEQIQAEQCLKENLEETLQLEIENCKEEIASISSLKAELERIKVEKGQLESTLREKSQQLESLQEIKISLEEQLKKETAAKATVEQLMFEEKNKAQRLQTELDVSEQVQRDFVKLSQTLQVQLERIRQADSLERIRAILNDTKLTDINQLPET
Turning to B1, the binding result in the assay with GST-Rabex-5(135-399) is reported as “no binding”.

B2: 6-His-Rabaptin-5(551-661) (other)
chain: HHHHHHAETRDQVKKLQLMLRQANDQLEKTMKDKQELEDFIKQSSEDSSHQISALVLRAQASEILLEELQQGLSQAKRDVQEQMAVLMQSREQVSEELVRLQKDNDSLQGKHSLHVS
notes: Purified from E. coli BL21(DE3)
B2: the binding result with GST-Rabex-5(135-399) is recorded as “no binding”.
